The values that follow come from publication PMC4136673.

Ends that are not written are not given here. * marks the point of attachment. Pyruvoyl = CC(=O)C(=O)*

This assay deals with T1, His6-ElxO (Staphylococcus epidermidis 15X154) (UniProt I6ZQW6).
T1 sequence: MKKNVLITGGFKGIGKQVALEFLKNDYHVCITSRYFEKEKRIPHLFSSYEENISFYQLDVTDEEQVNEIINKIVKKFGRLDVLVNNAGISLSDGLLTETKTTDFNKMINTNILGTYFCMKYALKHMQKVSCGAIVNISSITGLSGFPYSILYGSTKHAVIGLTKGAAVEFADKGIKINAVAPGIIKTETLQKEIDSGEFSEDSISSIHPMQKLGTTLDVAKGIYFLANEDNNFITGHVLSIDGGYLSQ

For Pyr-AAI (peptide), the kcat/Km of reduction by His6-ElxO with NADPH (absorbance at 340 nm) amounted to 0.06 M⁻¹ s⁻¹.

As to Pyr-A (peptide), the kcat/Km of reduction by His6-ElxO with NADPH (absorbance at 340 nm) was less than 0.03 M⁻¹ s⁻¹. With Pyr-AAIVKBBIKAAKK (peptide), the kcat/Km of reduction by His6-ElxO with NADPH (absorbance at 340 nm) turned out to be 14.2 M⁻¹ s⁻¹. The result for Pyr-AA (peptide) reads less than 0.03 M⁻¹ s⁻¹; that for Pyruvoyl-AAIVK [Pyr-AAIVK], 2.43 M⁻¹ s⁻¹. The result for Pyruvoyl-AAIV [Pyr-AAIV] reads 1.13 M⁻¹ s⁻¹.
